# Measurements from US20170184604A1, “DD1ALPHA RECEPTOR AND USES THEREOF IN IMMUNE DISORDERS” (THE GENERAL HOSPITAL CORPORATION, priority 2014, published 2017).
# Assays:
# [1] = biological target: T1, PD-1 (Homo sapiens, UniProt Q15116); assay: Ig fusion protein staining of 293T transfectants (flow cytometry); assay type: binding; settings: cell surface staining
# T1 construct: full length human PD-1 and Tim3 cDNA (Sino biological) were cloned into pcDNA3.1(−) tagged with HA at C-terminus; host or cells: HEK293T
# Experimental: (§1) The bound Ig fusion proteins were detected with anti-Ig-APC. Empty vector (pcDNA3.1)-transfected cells stained with Ig proteins are shown as a negative control (gray filled) and other staining is shown as black open. […] Purified CD4+ T cells from Wt and DD1α−/− mice were assayed for binding to Ig fused DD1α or PD1 proteins. […] The bound Ig fusion proteins were detected by anti-Ig-APC. Binding amounts were determined by percentage of APC positive cells compared to control Ig protein-bound cells. […] The bead bound proteins were eluted and determined by western blot analysis using anti-HA antibody (asterisks). […] The bead bound proteins were eluted and detected by western blot analysis with anti-DD1α or anti-PD1 antibody (asterisk). […] MCF7 cells were treated by Nutlin-3 (10 μM) for 1 to 3 days. MCF7 cells were transfected with control siRNA or p53 siRNA for 24 hours and treated with CPT (500 nM) or DMSO (control) for 1 and 2 days. The levels of indicated proteins were analyzed by western blot analysis. Total RNAs from control siRNA or p53 siRNA transfected MCF7 cells were assessed for mRNA levels of PD1 or PD-L1 by real-time quantitative PCR.
# [2] = biological target: T2, TIM-3 (Homo sapiens, UniProt Q8TDQ0); assay: as above; assay type: binding; settings: cell surface staining
# T2 construct: full length human PD-1 and Tim3 cDNA (Sino biological) were cloned into pcDNA3.1(−) tagged with HA at C-terminus; host or cells: HEK293T
# Experimental: as §1
# [3] = test system: DD1α; assay: Homophilic interaction assay (Ig protein-coated beads on transfected 293T cells); assay type: binding, human
# Experimental: (FIG. 3A) Defective apoptotic cell engulfment of DD1α−/− m-BMDMs. Engulfments of Wt and DD1α−/− apoptotic thymocytes by Wt and DD1α−/− BMDMs were assessed by flow cytometry as described previously. The pHrodo-labeled apoptotic thymocytes were incubated with m-BMDMs for 30 min and the phagocytosis was determined by measuring the positive pHrodo-containing macrophages. Graph represents mean±SD from three independent experiments. (FIG. 3B) Homophilic DD1α interaction. […] The binding was examined under an inverted microscope (left panels) and also determined from the optical density (O.D.) at 492 nm (shown at the right). […] Binding was determined by counting the bound cells per 100 μm^2 and normalized by cell number bound to untreated plate. […] The bead bound His-DD1α (33-194) proteins were eluted and detected by immunoblotting using anti-His antibody. […] DD1α-transfected cells were treated or untreated with 1 mM bis(maleinido)hexane (BMH) for 1 hour, and DD1α protein was analyzed by western blotting under non-reducing condition. […] The phagocytosis of MCF7/DD1α KD cells expressing empty vector (EV), DD1α or DD1α-ΔIgV was determined as in FIG. 2A. […]
# T1 sequence (Q15116 25-288): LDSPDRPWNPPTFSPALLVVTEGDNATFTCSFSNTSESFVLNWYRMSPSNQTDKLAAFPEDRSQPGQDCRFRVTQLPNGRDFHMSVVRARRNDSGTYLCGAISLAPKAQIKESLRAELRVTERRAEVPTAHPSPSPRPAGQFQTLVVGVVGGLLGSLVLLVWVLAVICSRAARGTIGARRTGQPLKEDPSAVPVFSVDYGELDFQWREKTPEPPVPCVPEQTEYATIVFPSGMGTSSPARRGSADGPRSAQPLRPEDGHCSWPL
substance,measurement,setting,value
DD1α-Ig: the extracellular region of DD1α fused with the immunoglobulin G Fc segment,binding to PD-1-transfected 293T cells,[1],specifically bound
same,binding to TIM-3 transfectants,[2],not to PD-L1 or TIM-3 transfectants
same,binding to IgV domain-deleted mutant DD1α on the cell surface,[3]; 293 cells transfected with mutant-DD1α (IgV domain-deletion),abolished this interaction
same,binding to complete DD1α proteins expressed on the cell surface,[3]; 293 cells transfected with wt-DD1α,bound
